This test concerns the target T1, 53BP1 tandem Tudor domain (residues 1459-1634) (human, UniProt Q12888 1459-1634).
T1 chain: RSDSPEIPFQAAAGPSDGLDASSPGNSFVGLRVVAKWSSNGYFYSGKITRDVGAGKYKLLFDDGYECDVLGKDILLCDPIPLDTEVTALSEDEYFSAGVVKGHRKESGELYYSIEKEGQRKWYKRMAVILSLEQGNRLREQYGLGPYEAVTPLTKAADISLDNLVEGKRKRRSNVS
Kind of test: ITC.

Ends that are not written are not given here. dimethyl = dimethyl-lysine

B1: H4K20me2 peptide (residues 12-25) (peptide)
peptide: KGGAKRHRK(dimethyl)VLRDN
B1 had a Kd of 19.8 µM.

A word on the Kd: it is the equilibrium constant for the complex coming apart. Low values mean tighter binding, high ones weaker binding.

Source of the values: PMC6043480 (2018).
